The record followed here is publication doi:10.1101/2022.09.16.508217 (bioRxiv, 2022).

For assay [1], the target named is T1, yeast PCNA, N-terminally His-tagged Pol30 (S. cerevisiae, UniProt P15873 1-258).
T1 sequence: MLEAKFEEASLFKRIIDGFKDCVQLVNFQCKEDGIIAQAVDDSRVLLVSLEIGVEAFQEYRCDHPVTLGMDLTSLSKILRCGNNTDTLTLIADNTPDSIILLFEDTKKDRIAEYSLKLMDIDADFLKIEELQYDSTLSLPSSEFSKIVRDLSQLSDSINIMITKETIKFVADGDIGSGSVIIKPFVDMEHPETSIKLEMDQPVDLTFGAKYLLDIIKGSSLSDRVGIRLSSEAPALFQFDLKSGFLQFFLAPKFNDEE
The experiment in a line: pull-down.

Assay [2] concerns the target chicken N-terminally His-tagged PCNA (recombinant) (chicken, UniProt Q9DEA3 1-262). The assay can be described thus: pull-down.

Positions count from the first letter of the chain named. Names and notes keep the numbering of the source.

chicken N-terminally His-tagged PCNA (recombinant), sequence (Q9DEA3 whole entry): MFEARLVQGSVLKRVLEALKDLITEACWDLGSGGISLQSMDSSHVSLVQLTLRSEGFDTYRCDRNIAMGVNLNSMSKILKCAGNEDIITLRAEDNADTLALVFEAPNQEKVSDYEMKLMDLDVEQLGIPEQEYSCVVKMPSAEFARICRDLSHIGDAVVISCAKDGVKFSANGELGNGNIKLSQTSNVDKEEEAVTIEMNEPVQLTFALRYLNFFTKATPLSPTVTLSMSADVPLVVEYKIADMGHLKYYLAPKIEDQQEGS

B1: GSTscc2PIP (GST fused with the last 18 amino acids of yeast Scc2, aa 1476-1493, wild-type PIP) (domain or fragment)
chain: YSSNGKLLTYFRKHVKDT
B1: the binding result in assay [1] is “binds”.

B2: GST-NIPBL WT (C-terminus of chicken NIPBL, aa 2582-2783, fused to GST) (domain or fragment)
chain: ANSKITEEVKRSIVKQYLDFKLLMEHLDPDEEEEDGEVSASTNARNKAITSLLGGGSPKNNAAETEDDESDGEDRGGGTSGSLRRSKRNSDSTELASQMNESVDVMDVIAICCPKYKDRPQIARVVQKTSNGFSVQWMAGSYSGSWTEAKRRDGRKLVPWVDTIKESDIIYKKIALTSANKLTNKVVQTLRSLYAAKDGTSS
For B2, the binding result in assay [2] was “binds”.

B3: GST-NIPBL pip1 (chicken NIPBL aa 2582-2783 with PIP1 mutated Q2597A,L2599A,F2601A, fused to GST) (domain or fragment)
chain: B2 chain with Q16A, L18A, F20A
On to B3, for which the binding result in assay [2] is on record as “binds”.

B4: GST-NIPBL-pip2 (chicken NIPBL aa 2764-2783 with Q2769A,L2771A,Y2775A, fused to GST) (peptide)
chain: TNKVVATARSLAAAKDGTSS
For B4, the binding result in assay [2] was “binds”.

B5: GST-NIPBL-PIP2 (chicken NIPBL aa 2764-2783 fused to GST) (peptide)
chain: TNKVVQTLRSLYAAKDGTSS
Take B5: the binding result in assay [2] is recorded as “binds”.
